± gives the standard deviation of the averaged measurements.
System: Saccharomyces cerevisiae
Assay: protein stability index of tFT-peptide fusion (C-terminal peptide) (PSI (0-1 scale)); higher = more stable (slower turnover)
Conditions: genetic background: wild type; temperature: 37 C
Protocol: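 MPS profiling in S. cerevisiae of the tFT-X12 degron library: putative degron peptides plus stable controls, 12 aa, fused to the C-terminus of a sfGFP-mCherry timer. Cells are FACS-sorted into 8 mCherry/sfGFP bins and deep-sequenced. PSI runs from 0 (unstable) to 1 (stable). Backgrounds are wild type, das1Δ and doa10Δ at 30 °C, and wild type, das1Δ, cdc34-1 and cdc53-1 at 37 °C; 2-3 technical replicates each.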
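Further: PSI is a weighted mean of sequencing reads over stability bins, variants kept only with over 10 reads, mCherry proximal and sfGFP distal, peptide attached via GGGS linker.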

| Sequence | protein stability index |
| --- | --- |
| APLSPLLPPFLC | 0.595 ± 0.013 |
| APPPLFLIVLHL | 0.521 ± 0.026 |
| APTMAIIVVHVR | 0.359 ± 0.019 |
| ARKIGKVIPKLG | 0.599 ± 0.011 |
| ASLSSSRPPLLP | 0.6962 ± 0.0011 |
| ASLVGGVLLVVV | 0.502 ± 0.022 |
| AWPGRLWYFWLA | 0.4106 ± 0.003 |
| AYCGGRNKCTTE | 0.712 ± 0.0078 |
| AYVAPRRALMCS | 0.406 ± 0.017 |
| CEERVKSRLKQN | 0.307 ± 0.022 |
| CFCLFVFFISSC | 0.397 ± 0.015 |
| CFCSFQFVRLWV | 0.58 ± 0.0096 |
| CFFFPCFSFRFL | 0.453 ± 0.033 |
| CFFICGVFVFLM | 0.4088 ± 0.0015 |
| CFFILSLMVVVI | 0.183 ± 0.0091 |
| CFFLSFNVFRLF | 0.113 ± 0.0019 |
| CFVISVLFFFVG | 0.436 ± 0.03 |
| CFVLVVCIPVMV | 0.3279 ± 0.0019 |
| CFVQVGGLVKIS | 0.57 ± 0.04 |
| CFVSFLHLLYFS | 0.425 ± 0.0054 |

| Sequence | protein stability index |
| --- | --- |
| CGFVCGLCLCRV | 0.572 ± 0.013 |
| CGFVFFVLVVFW | 0.193 ± 0.026 |
| CGQIAFLGIAVK | 0.541 ± 0.0077 |
| CGWFVSVGWRLG | 0.5062 ± 0.0022 |
| CHFLLHYVFLLS | 0.462 ± 0.015 |
| CHPIPLARLAPT | 0.697 ± 0.011 |
| CKKATILRIKSM | 0.298 ± 0.059 |
| CLCYFLFYFLFV | 0.543 ± 0.028 |
| CLEHLVYCRLAS | 0.0634 ± 0.0027 |
| CLHFLTWVRICS | 0.0804 ± 0.03 |
| CLNPCVRWDGHV | 0.732 ± 0.011 |
| CMAWLSVLKTLF | 0.615 ± 0.053 |
| CRQDWMCFVYLS | 0.0647 ± 0.023 |
| CVFAYSPVALRC | 0.532 ± 0.018 |
| CVFGFACRVLVV | 0.364 ± 0.01 |
| CYKYTYVKNNMI | 0.555 ± 0.014 |
| CYRRCQAFLVLV | 0.162 ± 0.011 |
| DFVFFLVSVRFR | 0.284 ± 0.0058 |
| DGSFCLLYMTIA | 0.4919 ± 0.0048 |
| DGYLFKGIWFFV | 0.349 ± 0.0098 |

| Sequence | protein stability index |
| --- | --- |
| DKVTLLRRCKQY | 0.311 ± 0.012 |
| DLRGLGRFRISH | 0.677 ± 0.017 |
| DLVGRETRMRLN | 0.526 ± 0.097 |
| DPTLLLYPLSPL | 0.72 ± 0.023 |
| DVVRWQRVRNYV | 0.573 ± 0.0059 |
| EGGGGRFWVCVG | 0.596 ± 0.018 |
| EKHRRYAITKFI | 0.407 ± 0.1 |
| EKKNQTAYNKTV | 0.365 ± 0.0059 |
| EKTKTKRERKIN | 0.384 ± 0.0062 |
| ELNERRKRLVTN | 0.268 ± 0.033 |
| ERNERKYKIKIT | 0.461 ± 0.034 |
| ESCFGMAIFCVT | 0.525 ± 0.01 |
| ESCIFLMWLTVL | 0.0936 ± 0.013 |
| ESFIKFALYIVN | 0.5099 ± 0.00084 |
| EVVFHVFLVGLV | 0.464 ± 0.0058 |
| FALPPSLLLLSA | 0.55962 ± 0.00044 |
| FCCLIGYIWYGW | 0.514 ± 0.039 |
| FCFLLLSWAFWV | 0.1757 ± 0.00047 |
| FCFVRGLLFLFF | 0.506 ± 0.023 |
| FCIYLCLSTSIT | 0.247 ± 0.0029 |

System: Saccharomyces cerevisiae
Assay: as above
Conditions: genetic background: wild type; temperature: 30 C

| Sequence | protein stability index |
| --- | --- |
| APLSPLLPPFLC | 0.391 ± 0.088 |
| APPPLFLIVLHL | 0.424 ± 0.018 |
| APTMAIIVVHVR | 0.3059 ± 0.0021 |
| ARKIGKVIPKLG | 0.43 ± 0.027 |
| ASLSSSRPPLLP | 0.746 ± 0.051 |
| ASLVGGVLLVVV | 0.454 ± 0.011 |
| AWPGRLWYFWLA | 0.251 ± 0.14 |
| AYCGGRNKCTTE | 0.701 ± 0.0081 |
| AYVAPRRALMCS | 0.421 ± 0.069 |
| CEERVKSRLKQN | 0.226 ± 0.082 |
| CFCLFVFFISSC | 0.362 ± 0.057 |
| CFCSFQFVRLWV | 0.452 ± 0.062 |
| CFFFPCFSFRFL | 0.342 ± 0.041 |
| CFFICGVFVFLM | 0.3651 ± 0.00098 |
| CFFILSLMVVVI | 0.194 ± 0.054 |
| CFFLSFNVFRLF | 0.148 ± 0.05 |
| CFVISVLFFFVG | 0.444 ± 0.025 |
| CFVLVVCIPVMV | 0.31 ± 0.035 |
| CFVQVGGLVKIS | 0.412 ± 0.012 |
| CFVSFLHLLYFS | 0.362 ± 0.015 |

| Sequence | protein stability index |
| --- | --- |
| CGFVCGLCLCRV | 0.484 ± 0.0062 |
| CGFVFFVLVVFW | 0.15 ± 0.035 |
| CGQIAFLGIAVK | 0.4722 ± 0.0006 |
| CGWFVSVGWRLG | 0.25 ± 0.013 |
| CHFLLHYVFLLS | 0.417 ± 0.017 |
| CHPIPLARLAPT | 0.72 ± 0.013 |
| CKKATILRIKSM | 0.304 ± 0.013 |
| CLCYFLFYFLFV | 0.501 ± 0.043 |
| CLEHLVYCRLAS | 0.131 ± 0.022 |
| CLHFLTWVRICS | 0.285 ± 0.041 |
| CLNPCVRWDGHV | 0.708 ± 0.0077 |
| CMAWLSVLKTLF | 0.495 ± 0.04 |
| CRQDWMCFVYLS | 0.108 ± 0.016 |
| CVFAYSPVALRC | 0.488 ± 0.01 |
| CVFGFACRVLVV | 0.338 ± 0.017 |
| CYKYTYVKNNMI | 0.249 ± 0.051 |
| CYRRCQAFLVLV | 0.181 ± 0.0026 |
| DFVFFLVSVRFR | 0.284 ± 0.081 |
| DGSFCLLYMTIA | 0.454 ± 0.01 |
| DGYLFKGIWFFV | 0.189 ± 0.031 |

| Sequence | protein stability index |
| --- | --- |
| DKVTLLRRCKQY | 0.202 ± 0.12 |
| DLRGLGRFRISH | 0.572 ± 0.11 |
| DLVGRETRMRLN | 0.383 ± 0.0088 |
| DPTLLLYPLSPL | 0.57 ± 0.2 |
| DVVRWQRVRNYV | 0.454 ± 0.041 |
| EGGGGRFWVCVG | 0.425 ± 0.028 |
| EKHRRYAITKFI | 0.28 ± 0.043 |
| EKKNQTAYNKTV | 0.39 ± 0.018 |
| EKTKTKRERKIN | 0.312 ± 0.028 |
| ELNERRKRLVTN | 0.304 ± 0.011 |
| ERNERKYKIKIT | 0.374 ± 0.041 |
| ESCFGMAIFCVT | 0.466 ± 0.024 |
| ESCIFLMWLTVL | 0.136 ± 0.0054 |
| ESFIKFALYIVN | 0.419 ± 0.0082 |
| EVVFHVFLVGLV | 0.362 ± 0.0059 |
| FALPPSLLLLSA | 0.501 ± 0.026 |
| FCCLIGYIWYGW | 0.488 ± 0.019 |
| FCFLLLSWAFWV | 0.159 ± 0.048 |
| FCFVRGLLFLFF | 0.442 ± 0.06 |
| FCIYLCLSTSIT | 0.374 ± 0.084 |

Reference: the supplement of paper PMC10724198
